Laboratory results: paper PMC11758952, “A kinetic model for compound heterozygous pathogenic variants in Tyrosyl-tRNA synthetase gene YARS2-Associated neonatal phenotype” (The Journal of Biological Chemistry, 2024)
Numbering of substitutions follows the chain as printed. Numbers in names are those of the source.

B1: human mitochondrial tyrosyl-tRNA synthetase (mt-TyrRS), WT/WT unlinked homodimer (enzyme, UniProt Q9Y2Z4 17-477, looked up)
chain: TLNLSVLLPLGLRKAHSGAQGLLAAQKARGLFKDFFPETGTKIELPELFDRGTASFPQTIYCGFDPTADSLHVGHLLALLGLFHLQRAGHNVIALVGGATARLGDPSGRTKEREALETERVRANARALRLGLEALAANHQQLFTDGRSWGSFTVLDNSAWYQKQHLVDFLAAVGGHFRMGTLLSRQSVQLRLKSPEGMSLAEFFYQVLQAYDFYYLFQRYGCRVQLGGSDQLGNIMSGYEFINKLTGEDVFGITVPLITSTTGAKLGKSAGNAVWLNRDKTSPFELYQFFVRQPDDSVERYLKLFTFLPLPEIDHIMQLHVKEPERRGPQKRLAAEVTKLVHGREGLDSAKRCTQALYHSSIDALEVMSDQELKELFKEAPFSEFFLDPGTSVLDTCRKANAIPDGPRGYRMITEGGVSINHQQVTNPESVLIVGQHILKNGLSLLKIGKRNFYIIKWLQL
notes: Construct provided by R. Giege; also called YARS2 enzyme; not shown: His-tag, C-terminal, kept
B2: human mitochondrial tyrosyl-tRNA synthetase F185L, F185L/F185L unlinked homodimer (enzyme, UniProt Q9Y2Z4 17-477, looked up)
chain: B1 chain with F169L
notes: Paternally inherited variant of the patient; also called p.F185L; not shown: His-tag, C-terminal, kept

Molecular target: the molecule itself
Experiment: native gel or EMSA; native 8% PAGE of the unlinked enzyme (20 ug), 0.75 M Tris pH 8.8, 4 °C, 90 V for 3 h, Western blot (anti-His, anti-mt-TyrRS)

Protein	binding result
B1	binds
B2	binds
